Test results taken from US20050037969A1 (ARBOR VITA, published 2005).
Ends that are not written are not given here. * marks the point of attachment. Biotin = O=C1N[C@H]2[C@H](CS[C@H]2CCCCC(=O)*)N1

T1: GST-41.8 kD protein (KIAA0751) PDZ domain fusion protein (Mus musculus (Mouse), UniProt Q9EQZ7 682-763)
T1 construct: also called 41 kd; hypoth; not shown: glutathione S-transferase encoded by vector pGEX-3X (Pharmacia)
T1 sequence: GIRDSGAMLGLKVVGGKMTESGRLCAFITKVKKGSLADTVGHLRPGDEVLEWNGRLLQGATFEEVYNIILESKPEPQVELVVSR

T2: GST-AF6 PDZ domain fusion protein (Homo sapiens (Human), UniProt P55196 1001-1093)
T2 construct: also called af-6 protein; not shown: glutathione S-transferase encoded by vector pGEX-3X (Pharmacia)
T2 sequence: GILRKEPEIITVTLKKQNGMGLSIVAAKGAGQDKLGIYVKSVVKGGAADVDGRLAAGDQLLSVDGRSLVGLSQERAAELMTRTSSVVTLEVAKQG

T3: GST-RGS12 PDZ domain fusion protein (human, UniProt O14924 17-85)
T3 construct: also called human regulator of G-protein signalling 12; not shown: glutathione S-transferase encoded by vector pGEX-3X (Pharmacia)
T3 sequence: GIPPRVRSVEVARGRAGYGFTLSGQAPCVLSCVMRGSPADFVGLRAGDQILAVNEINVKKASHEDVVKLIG

T4: GST-LIM protein PDZ domain fusion protein (Human, UniProt Q96HC4 2-85)
T4 construct: also called Human LIM protein; not shown: glutathione S-transferase encoded by vector pGEX-3X (Pharmacia)
T4 sequence: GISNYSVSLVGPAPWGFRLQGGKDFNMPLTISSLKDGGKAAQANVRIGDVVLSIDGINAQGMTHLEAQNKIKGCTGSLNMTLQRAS

T5: SP short PDZ-GST fusion protein (Homo sapiens (Human), UniProt O43464 350-435)
T5 construct: The label SP short is not explained in the excerpts
T5 sequence: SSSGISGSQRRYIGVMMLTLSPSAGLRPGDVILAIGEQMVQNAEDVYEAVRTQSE

T6: KIAA0807 (PDZ domain)-GST fusion protein (human, UniProt Q6P0Q8 1104-1192)
T6 construct: also called K807; KIAA807; not shown: glutathione S-transferase encoded by vector pGEX-3X (Pharmacia)
T6 sequence: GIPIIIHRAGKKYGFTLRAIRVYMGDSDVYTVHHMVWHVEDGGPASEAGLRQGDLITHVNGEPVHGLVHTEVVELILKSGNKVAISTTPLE


Key:
[1] = target: T1, GST-41.8 kD protein (KIAA0751) PDZ …; assay: A/G plate assays, Table 2 matrix
[2] = target: T2, GST-AF6 PDZ domain fusion protein; assay: A/G plate assays, Table 2 matrix
[3] = target: T3, GST-RGS12 PDZ domain fusion protein; assay: A/G plate assays, Table 2 matrix
[4] = target: T4, GST-LIM protein PDZ domain fusion …; assay: A/G plate assays, Table 2 matrix
[5] = target: T5, SP short PDZ-GST fusion protein; assay: A/G assays
[6] = target: T7, GST-PSD95 fusion protein (PDZ domains 1-3) (human, UniProt P31016 56-395 (rat entry)); assay: G assay: biotinylated peptide on plate-bound GST-PDZ fusion, streptavidin-HRP, OD 450 nm
T7 construct: also called human post-synaptic density protein 95; not shown: glutathione S-transferase encoded by vector pGEX-3X (Pharmacia)

[7] = target: T7, GST-PSD95 fusion protein (PDZ domains …); assay: A/G plate assays, Table 2 matrix
[8] = target: T1, GST-41.8 kD protein (KIAA0751) PDZ …; assay: A/G assays
[9] = target: T6, KIAA0807 (PDZ domain)-GST fusion protein; assay: G assay on KIAA0807:GST fusion protein, 10 uM labeled peptide

T7 sequence (P31016 other isoform, or with tags, fused parts or gaps): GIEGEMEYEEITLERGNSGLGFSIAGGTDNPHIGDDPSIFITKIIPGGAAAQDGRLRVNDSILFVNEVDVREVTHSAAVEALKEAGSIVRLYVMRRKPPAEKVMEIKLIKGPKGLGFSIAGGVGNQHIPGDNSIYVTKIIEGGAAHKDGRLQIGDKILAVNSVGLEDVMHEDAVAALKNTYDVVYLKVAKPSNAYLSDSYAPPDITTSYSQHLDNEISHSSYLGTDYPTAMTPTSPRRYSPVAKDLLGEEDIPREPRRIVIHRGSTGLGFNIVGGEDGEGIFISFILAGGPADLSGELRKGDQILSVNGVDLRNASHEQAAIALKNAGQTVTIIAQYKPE

Row | binding result [1] | binding result [2] | binding result [3] | binding result [4] | binding result [5] | binding result [6] | binding result [7] | binding result [8] | binding result [9] | Binder
1 | binds | binds | binds | binds | no binding | binds |  |  |  | Biotin-TREDIYVNYPTFSRRPKTRV [DNAM-1 C-terminal peptide AA22L, biotinylated]
2 |  |  |  |  | no binding |  | binds | no binding | binds | Biotin-LASKSAEEGKQIPDSLSTDL [DOCK2 C-terminal peptide AA40L, biotinylated]
